From the Human Domainome abundance scans (Beltran et al. 2025)
± gives the uncertainty stated by the source.

B1: GA-binding protein alpha chain, residues 172 to 250; numbered along this chain, Q06546 (parent)
chain: GYRKEQERLGIPYDPIQWSTDQVLHWVVWVMKEFSMTDIDLTTLNISGRELCSLNQEDFFQRVPRGEILWSHLELLRKY

Variants of: B1
Assay: abundance fitness (aPCA) (normalised: wild type 0, dead -1); higher = more abundant; growth selection in yeast, the domain comes from the species named
Settings: Homo sapiens

Variant	abundance fitness
GYRKEQERLGIPYDPIQWSTDQVLHWVVWVMKEFSMTDIDLTILNISGRELCSLNQEDFFQRVPRGEILWSHLELLRKY	-0.202 ± 0.074
GYRKEQERLGIPYDPIQWSTDQVLHWVVWVMKEFSMTDIDLTCLNISGRELCSLNQEDFFQRVPRGEILWSHLELLRKY	0.013 ± 0.066
GYRKEQERLGIPYDPIQWSTDQVLHWVVWVMKEFSMTDIDLTDLNISGRELCSLNQEDFFQRVPRGEILWSHLELLRKY	0.034 ± 0.081
GYRKEQERLGIPYDPIQWSTDQVLHWVVWVMKEFSMTDIDLTFLNISGRELCSLNQEDFFQRVPRGEILWSHLELLRKY	-0.299 ± 0.15
GYRKEQERLGIPYDPIQWSTDQVLHWVVWVMKEFSMTDIDLTHLNISGRELCSLNQEDFFQRVPRGEILWSHLELLRKY	-0.149 ± 0.075
GYRKEQERLGIPYDPIQWSTDQVLHWVVWVMKEFSMTDIDLTALNISGRELCSLNQEDFFQRVPRGEILWSHLELLRKY	0 ± 0.041
GYRKEQERLGIPYDPIQWSTDQVLHWVVWVMKEFSMTDIDPTTLNISGRELCSLNQEDFFQRVPRGEILWSHLELLRKY	-0.028 ± 0.038
GYRKEQERLGIPYDPIQWSTDQVLHWVVWVMKEFSMTDIDITTLNISGRELCSLNQEDFFQRVPRGEILWSHLELLRKY	0.006 ± 0.077
GYRKEQERLGIPYDPIQWSTDQVLHWVVWVMKEFSMTDIDHTTLNISGRELCSLNQEDFFQRVPRGEILWSHLELLRKY	-0.063 ± 0.068
GYRKEQERLGIPYDPIQWSTDQVLHWVVWVMKEFSMTDIDMTTLNISGRELCSLNQEDFFQRVPRGEILWSHLELLRKY	-0.008 ± 0.055
GYRKEQERLGIPYDPIQWSTDQVLHWVVWVMKEFSMTDIDYTTLNISGRELCSLNQEDFFQRVPRGEILWSHLELLRKY	-0.025 ± 0.1
GYRKEQERLGIPYDPIQWSTDQVLHWVVWVMKEFSMTDIDTTTLNISGRELCSLNQEDFFQRVPRGEILWSHLELLRKY	-0.061 ± 0.057
GYRKEQERLGIPYDPIQWSTDQVLHWVVWVMKEFSMTDIDRTTLNISGRELCSLNQEDFFQRVPRGEILWSHLELLRKY	-0.191 ± 0.033
GYRKEQERLGIPYDPIQWSTDQVLHWVVWVMKEFSMTDIDNTTLNISGRELCSLNQEDFFQRVPRGEILWSHLELLRKY	-0.258 ± 0.088
GYRKEQERLGIPYDPIQWSTDQVLHWVVWVMKEFSMTDIDSTTLNISGRELCSLNQEDFFQRVPRGEILWSHLELLRKY	-0.127 ± 0.042
GYRKEQERLGIPYDPIQWSTDQVLHWVVWVMKEFSMTDIDFTTLNISGRELCSLNQEDFFQRVPRGEILWSHLELLRKY	-0.094 ± 0.059
GYRKEQERLGIPYDPIQWSTDQVLHWVVWVMKEFSMTDIDWTTLNISGRELCSLNQEDFFQRVPRGEILWSHLELLRKY	-0.132 ± 0.048
GYRKEQERLGIPYDPIQWSTDQVLHWVVWVMKEFSMTDIDQTTLNISGRELCSLNQEDFFQRVPRGEILWSHLELLRKY	-0.117 ± 0.056

Variant	abundance fitness
GYRKEQERLGIPYDPIQWSTDQVLHWVVWVMKEFSMTDIDGTTLNISGRELCSLNQEDFFQRVPRGEILWSHLELLRKY	-0.134 ± 0.033
GYRKEQERLGIPYDPIQWSTDQVLHWVVWVMKEFSMTDIDVTTLNISGRELCSLNQEDFFQRVPRGEILWSHLELLRKY	-0.024 ± 0.038
GYRKEQERLGIPYDPIQWSTDQVLHWVVWVMKEFSMTDIDLFTLNISGRELCSLNQEDFFQRVPRGEILWSHLELLRKY	-0.215 ± 0.058
GYRKEQERLGIPYDPIQWSTDQVLHWVVWVMKEFSMTDIDLCTLNISGRELCSLNQEDFFQRVPRGEILWSHLELLRKY	-0.051 ± 0.047
GYRKEQERLGIPYDPIQWSTDQVLHWVVWVMKEFSMTDIDLLTLNISGRELCSLNQEDFFQRVPRGEILWSHLELLRKY	-0.162 ± 0.035
GYRKEQERLGIPYDPIQWSTDQVLHWVVWVMKEFSMTDIDLDTLNISGRELCSLNQEDFFQRVPRGEILWSHLELLRKY	-0.011 ± 0.069
GYRKEQERLGIPYDPIQWSTDQVLHWVVWVMKEFSMTDIDLKTLNISGRELCSLNQEDFFQRVPRGEILWSHLELLRKY	-0.131 ± 0.067
GYRKEQERLGIPYDPIQWSTDQVLHWVVWVMKEFSMTDIDLATLNISGRELCSLNQEDFFQRVPRGEILWSHLELLRKY	-0.004 ± 0.04
GYRKEQERLGIPYDPIQWSTDQVLHWVVWVMKEFSMTDIDLRTLNISGRELCSLNQEDFFQRVPRGEILWSHLELLRKY	-0.014 ± 0.031
GYRKEQERLGIPYDPIQWSTDQVLHWVVWVMKEFSMTDIDLQTLNISGRELCSLNQEDFFQRVPRGEILWSHLELLRKY	-0.032 ± 0.054
GYRKEQERLGIPYDPIQWSTDQVLHWVVWVMKEFSMTDIDLYTLNISGRELCSLNQEDFFQRVPRGEILWSHLELLRKY	-0.1 ± 0.083
GYRKEQERLGIPYDPIQWSTDQVLHWVVWVMKEFSMTDIDLSTLNISGRELCSLNQEDFFQRVPRGEILWSHLELLRKY	-0.011 ± 0.034
GYRKEQERLGIPYDPIQWSTDQVLHWVVWVMKEFSMTDIDLNTLNISGRELCSLNQEDFFQRVPRGEILWSHLELLRKY	-0.083 ± 0.12
GYRKEQERLGIPYDPIQWSTDQVLHWVVWVMKEFSMTDIDLPTLNISGRELCSLNQEDFFQRVPRGEILWSHLELLRKY	-0.106 ± 0.037
GYRKEQERLGIPYDPIQWSTDQVLHWVVWVMKEFSMTDIDLHTLNISGRELCSLNQEDFFQRVPRGEILWSHLELLRKY	-0.075 ± 0.06
GYRKEQERLGIPYDPIQWSTDQVLHWVVWVMKEFSMTDIDLITLNISGRELCSLNQEDFFQRVPRGEILWSHLELLRKY	-0.181 ± 0.063
GYRKEQERLGIPYDPIQWSTDQVLHWVVWVMKEFSMTDIDLVTLNISGRELCSLNQEDFFQRVPRGEILWSHLELLRKY	-0.122 ± 0.041
